# Assay results taken from the DeepSol protein solubility set.
# Assay: soluble on expression in E. coli; label from the status in PepcDB or PDB records
row,Sequence,soluble on expression in E. coli
1,MGHHHHHHSHSMKEENLCQAFSDALLCKIEDIDNEDWENPQLCSDYVKDIYQYLRQLEVLQSINPHFLDGRDINGRMRAILVDWLVQVHSKFRLLQETLYMCVGIMDRFLQVQPVSRKKLQLVGITALLLASKYEEMFSPNIEDFVYITDNAYTSSQIREMETLILKELKFELGRPLPLHFLRRASKAGEVDVEQHTLAKYLMELTLIDYDMVHYHPSKVAAAASCLSQKVLGQGKWNLKQQYYTGYTENEVLEVMQHMAKNVVKVNENLTKFIAIKNKYASSKLLKISMIPQLNSKAVKDLASPLIGRS,not soluble
2,MSLEWHFSLKEPHVLLFLPFEKYALPYPDPSQSWLSFGLTEIPVPEWTKNLEIITPWRPDFLKFANAQFRCSPEINQTCTHDGALLQLSKYRGFNQNCFLDLLERVKPGGWIIIGGNKTSGADSMMKWVKKIVPITNKFSKNHGLVFWIQVPQQIEKQNTAQLRSPPLTFENKFQTTSGMFSHGRIDPGSAVLASHMCKTISGKTADFGAGWGFLSHAALERSEKLTALDLYEADYNALKAAKQHLKHITTSLPIHFYWHDLVHEPITNLYDTIISNPPFHTQQTTDVSLGQHFIINAAKYLKPGGNLLLVANRHLPYETLLKRLFRTVLIYEKAHGFKVIEAYREGHHHHHH,soluble
3,MNLFEYKLSVVRQVMDKYEVAEEAKFISGLSKGSMVNALSRKKKLPNKEAKFTRYVIYTVDVERIIDMMEEPYRTVIKKRYYDASLDTVKKDFGLQNKREAYFLVKKSVNKFYDLLENYWK,not soluble
4,MSLNDGNAMGQVIQIDEARIRDHLGEMVRGTVEETLNAMLEAEADQLCGAGRYERSPARQDTRAGSYERTLQTKAGDVNLKVPKLRRQTFETAIIERYRRRESSVEEALIEMYLAGISVRRVEDITEALWGTRVSPSTVSNLNKKIYAKIEAWRNRRIEGEHPYLYLDGIVMKRSWAGEVRNVSLLVASAVNAEGFREILGICEGAKEDKSGWSSFLRHLVDRGLKGVQLVVSDACRGLVESVADYLPEARYQRCMVHFYRNVFSHVPSTRVHEVSHMLKAIHAQESRAAADEKARTVIADLRASRMAKAADLVEQAVHETLAYYAFPDIHWRKIRTNNPLERIMKEIRRRTRVVGAFPDGQSCLNLAAARLRHIAGTAWSTKCYMNMRPLYQPQLSETGAVAEGHHHHHH,soluble
5,MSLTYLIKVLELFSGVGSFSISLNTLGIEHEIVGFSETRKTATQLFCKLHNKKESENLGDVRNVSAKDLDVDLLVFGSPCQSFTRAGKQGGGLKGSDTRSALMWEAVRIMEECKPKWIVWENVPDAISRKNMPNFQNYMDELDSLNYNTYYKVLNAHELGSAQKRKRLFSISIRKDIDNGKFEFLDLTREPKHLETYLENNDEGHHHHHH,soluble
6,MGSDKIHHHHHHMNWWLDPRIFEADNSELAMVLHPEWLNRRDVETIICDGSVRAGKTLIMSMSYVLWSMTNYNEEQFGIAGKTIGSLRRNVIRPLMRMLRGRGYEVKDKRADNLLVISHNGVTNYYYLFGGKDEGSQDLVQGITVAGFFFDEVALMPESFVNQATARASVDGAKFWFNCNPAGPYHWFKLEWLDQLDQHKAIHIHFTMKDNPSLSPETIDRYERMYTGVFYQRFILGQWVLSDGIIYDNFDKNKMVVKNPQGTARKYAVSIDYGTLNPTVFLMWGLYGDTWHLTKMYYYDGRHKHKQKTDEEYSAELDRFEDGLNPVEIIDPSAASFITLRRRGGHHVIKADNDVLDGIRKTGMAMNTGKIVFSPDLADLFKEFASYVWDEKAAEHGEDKPVKQHDHAMDAMRYFVMYMIGRQPTIQTFKLG,not soluble
7,MGSDKIHHHHHHMLNFTVGPVMSSEEVRAIGAEQVPYFRTTEFSSTMLENEKFMLEYAKAPEGSKAVFMTCSSTGSMEAVVMNCFTKKDKVLVIDGGSFGHRFVQLCEIHEIPYVALKLEHGKKLTKEKLYEYDNQNFTGLLVNVDETSTAVLYDTMMIGEFCKKNNMFFVCDCVSAFLADPFNMNECGADVMITGSQKVLACPPGISVIVLAPRGVERVEKSKVRTMYFDLKDALKNQERGQTPFTPAVGILLQINERLKEIKKHGGADAEVARIASQAADFRAKIKDLPFELVSESPANGVTSVHPTTANAYDIFLKLKDEYGIWICPNGGEMKDTIFRVGHIGALTHEDNTTLVNAFKDLQKRNLL,not soluble
8,MCDKLGGVAIAVQGALFEHNERRQLGDGAFIDIRSGWLTGGEELLDALLSTVPWRAERRQMYDRVVDVPRLVSFHDLTIEDPPHPQLARMRRRLNDIYGGELGEPFTTAGLCYYRDGSDSVAWHGDTIGRGSTEDTMVAIVSLGATRVFALRPRGRGPSLRLPLAHGDLLVMGGSCQRTFEHAVPKTSAPTGPRVSIQFRPRDVR,not soluble
9,MKPVKVGICGLGTVGGGTFNVLQRNAEEIARRAGRGIEVAQIAVRTPNPNCQIAGTPTTSDVFAVATNPEIDIVVELIGGYTIARDLVLKAIEHGKHVVTANKALIAVHGNEIFAKAREKGVIVAFEAAVAGGIPVIKAIREGLSANRINWVAGIINGTGNFILTEMREKGRTFPDVLAEAQALGYAEADPTFDVEGIDAAHKLTILASIAFGIPLQFDKAYTEGITKLTTADVNYAEALGYRIKHLGVARSTAQGIELRVHPTLIPADRLIANVNGVMNAVMVNGDASGSTLFYGAGAGMEPTASSVVADLVDVVRAMTSDPENRVPHLAFQPDSLSAHPILPIEACESAYYLRIQAKDHPGVLAQVASILSERGINIESIMQKEVEEHDGLVPMILLTHRVVEQRINDAIQALEALQDVVGPVVRIRVEHLN,not soluble
10,MGSDKIHHHHHHMTASVNVPLNSRGKLAASLPAEQLAEITALFEFRRTGYSLDAPFYTDRSIFNIDMEAIFGQHWIFAASTAELPEPGDYVTVDYGPYSLIVLRNDDGAVNVLHNVCRHRGARVLTEAAGSTGNLVCGYHSWTYSPEGNLIHASAPGETKFDKSCFGLKRAHGREVAGLIFVCIADDAPTDFDETAKIFEPYLAPHDLSKTKIAYQQNIIEEGNWKLVMENNRECYHCDGHPELACSLFPTWGLTEGLIPPHLEEVWNRNKEAQSSLEERCRRYGLPYEVVEQLDTRIAGIRISRESLDGEGESFSADGRRLSKKLLGDLPDFRLGRCSMHLQPNSWFHFLGDHVITFGVFPINEHQSLVRTTWLVADDAVEGVDYDLEKLTYTWKQTNLQDKAFVELCQQGAGSPAYEPGPYMKSEYQVEAFINWYVQRVQEHLA,not soluble
11,ATDKRLLGNTAIIGQSGSGKTVLLGFLLAQAQKFKPTTVVFDKDRGMEIAIRAMGGRYLTFKPGRQSGFNPFQLPPTQDNLTFLKQFVKKLAEASSEITHRDEEEINQAVMSIMSSNINPSLRRLSFLLQFLPNPHLNDYNSHPSVHTRLIKWCEGGDYGWLFDNPTDALDLSTHQIYGFDITEFLDNPETRTPVMMYLLYRTEGMISGQRFMYIFDEFWKPLQDPYFEDLAKNKQKTIRKQNGIFVFATQEPTDALESNIAKTLIQQCATYIFLA,not soluble
12,MTDDKKIRAAIVGYGNIGRYALQALREAPDFEIAGIVRRNPAEVPFELQPFRVVSDIEQLESVDVALVCSPSREVERTALEILKKGICTADSFDIHDGILALRRSLGDAAGKSGAAAVIASGWDPGSDSVVRTLMQAIVPKGITYTNFGPGMSMGHTVAVKAIDGVKAALSMTIPLGTGVHRRMVYVELLPGHNLEEVSAAIKADEYFVHDETHVIQVDEVDALIDMGHGVRMVRKGVSGSTQNQRMSFDMEINNPALTGQVLVCAARAAMRQQPGAYTLQEIPVIDLLPGDREQWIGKLC,soluble
13,MIPKSTGYLADLNIHWKNYIQYLHKIEVAPKTKLQLLHDVANRIFIVESGSVRMGFEKDGKDITLQFFFEDELVASVESLFNQTPSKYFIETIEHSTIYYLTKEMLEVMALKLPEMANITQDILMSRLIYYSNHLHSYISETPEQRFNKLIETRPYIFMRVSQRHIASYLGITNVSLSRIKARKSVVYDQQPATVSVAEADNEEYLKS,not soluble
14,MGHHHHHHSHMSLSSSACPLLLTLRDHLLQLEQQLCFSLFKIFWQMLVEKLDVYIYQEIILANHFNEGGAAQLQFDMTRNLFPLFSHYCKRPENYFKHIKEACIVLNLNVGSALLLKDVLQSASGQLPATAALNEVGIYKLAQQDVEILLNLRTNWPNTGK,not soluble
15,MIIPEYGRTLTPEEWRPVVDEMLEATHIIFTTHENSDGDGLGSQVALALALKALGKEVAIFNPTEVPPNYLFLKELHEINLFRDRDEESMQEFFLADLLVVLDANLHDRIGRLWPHVEFARQMSRLKVLCIDHHLEPEDFADITVCETYASSTGELVCDLVTALELRTGQQLFTPEVASALYAAIMTDTGSFRFPKTTPYTYRLAGMLVEKGADPELVYDRIYNAL,not soluble
16,MGSDKIHHHHHHMNDSATQLTSTGSLTLRHLEAVTMDKAPTFTVKRIAFDEHYLPAENTRITTNFANLARGANRQQNLRNTLTMINNRFNALAHWDNPEHDRYRVELDIISVEMNLESAQYGNALPLIEILKTYIVDRKNNTRLEGMVGNNFSSYVRDYDFSVLLLEHNKHRSTFSTPDHFGELHGNLFKCFVNSQTYQEHFSKPPVICLSVSSSRTYLRTENQHPVLGVEYQQDEYSLTDEYFKKMGLTVRYFMPPNSVAPLAFYFAGDLLADYTDLELISTISTMDTFQKIYRPEIYNANSPAGKAYQPSLKNQDYSLTRIVYDREERSRLAIEQGKFAEEQFVKPYQATLAQWSAQYAR,not soluble
17,MGHHHHHHSHMIGSGLSDLFDLTSGVGTLSGSYVAPKAVWLPAMKAKGLEISGTFTRQVGSISMDLQLTNKALQVMTDFAIQFNRNSFGLAPAAPLQVHAPLSPNQTVEISLPLSTVGSVMKMEPLNNLQVAVKNNIDVFYFSTLYPLHILFVEDGKMDRQMFLATWKDIPNENEAQFQIRDCPLNAEAASSKLQSSNIFTVAKRNVEGQDMLYQSLKLTNGIWVLAELRIQPGNPSCTDLELSLKCRAPEVSQHVYQAYETILKN,soluble
18,MHHLILGYGYCGYYLAQELLGHHQQVTVVSRQLKKELELSKLQHISHDLEYPFHWSEPDSIIYYLIPPPSQGTCDTFLQQFLNQSSLNAKKIIYFGSSGVYGNHQGAWVDELSACIIDSPRQQRRLDAEQQWLAYCQQHNKELSLLRIAGIYGPNRIPADAAKSKIPIIKPTEAPFTNHIFVKDLALIAYLLGQKQTTSAVYNVADGNPTHMGELQQTVANALGIESASYESFEQAWEKASPMKREFMRASKRLKIDLLKTALGEDIQFTSLYDAVKQSL,not soluble
19,MGSDKIHHHHHHMSQTQQSASITSETQSFDVILVGGGMVGAATAIGLAQQGLHIAVIESFAPEAYSPEQALDVRVSAISVASEHLLEQLGALDSLLKMRNVPYLGLETWELDGCITQFHSSQIGASHLGHIVENRLVQLALWEQMQQWENIRLFCPERVAHFARGVDTVSVHLQSGCLLEAKLLVGADGANSHVRQWAGIGISGWDYAQSAMLINIQTTQGQQDVTWQQFTPSGPRSLLPLPGNHASLVWYDDANRIKQLMQLNNKQLAEQIRQHFPARLDSDFIVEAKGSFALTRRHAQVYVKPNVVILGDAAHTINPLAGQGVNLGFKDVEALLSVIKAALTEDKPWWSTEVLGKYQAKRYLDNQLMMTTMDVFYAGFSNDILPLKLLRNGALKLANINSPLKQTVLKYAMGLN,not soluble
20,MMHFEVHGRTDAEAPTILLSSGLGGSSAYWLPQIEALSDHFRIVTYDHRGTGRTGGEVPTEGGISAMADDVLEIVSALNLEKFHFMGHALGGLIGLDIALRQPRLIDRLVLINAWSKADPHSGRCFDVRIELLEKSGVDAFVKAQPLFLYPAAWMSEHQERLARDDAHGVAHFQGKTNVLRRIAALRAFDIDARLGEIGNPVLVVATKDDLLVPYTRSLRLAEGLPQSELCLLDFGAHAVNITEPDLFNTRLLQFLLPADQT,not soluble
